Source: patent US20100129346A1 (G2 INFLAMMATION, published 2010)
Residue numbers refer to the chain shown, from its start. No end group written: not given here. *: point of attachment. Biotin = O=C1N[C@H]2[C@H](CS[C@H]2CCCCC(=O)*)N1

B1: MAb 8G7 (antibody, V domains shown)
VH: DIQLQESGPGLVKPSQSLSLTCSVTGYSITSGHYWNWIRQLPGNKMEWMGHISNDGSNRYNPSLKNRISITRDTSKNQFFLKLNSVTTEDTATYYCALFYFAYASFAYWGQGTLVTVSA
VL: DVVMTQTPLSLPVSLGDQASISCRSSQSLLHSNGNTYLHWYLQKPGQSPKLLIYKVSTRFSGVPDRFSGSGSGADFTLQISRVEAEDLGVYLCSQSTHVPPTFGAGTKLVLT
notes: Mouse monoclonal antibody from a hybridoma (ECACC 06081803); also called 8G7-M6
B2: MAb 7H3 (antibody, V domains shown)
VH: EVKLEESGGGLVQPGGSMKLSCVASGFTFSDAWMDWVRQSPEKGLEWVAGIRNRANNHATYYVASVKGRFTVSRDDSKSSVYLQMNSLRAEDAGIYYCTRGDGYFFDYWGQGTTLTVSS
VL: DVVLTQTPLSLSVSLGDQASISCRSGQSLVHSNGNTYLHWYLQKPGQSSKLLIYKVSNRLSGVPDRFSGSGSGTDFTLKISRVEAEDLGVYFCSQTTHVPPTFGGGTKLEIK
notes: Mouse monoclonal antibody from a hybridoma (ECACC 06081802); also called 7H3-N9
B3: MAb 3C5 (antibody, V domains shown)
VH: DVQLQESGPGLVKPSQSLSLTCSVTGYSITSGNYWNWIRQFPGKKLEWMGHISYDGNNKYNPSLKNRISITRDTSKNQFFLRLNSVTAEDTAAYYCALFYFDYASFTYWGQGTLVTVSA
VL: B1 VL with L30V, Q43R, T58N, A74T, Q79K, L92F, V110E, T112K
B4: MAb 7F3 (antibody, V domains shown)
VH: QVQLQQSGPELVKPGASVKISCKASGYAFSNSWMNWVKQRPGKGLEWIGRIYPGDGDTKYNGKFKGKATLTADKSSSTAYMQLSSLTSEDSAVYFCARFLLISTVTAVDYWGQGTTLTVSS
VL: DVVMTQSPLSLPVSLGNQASISCRSSQSLVHSNGNTYLHWYLQKPGQSPKLLIYKVSNRFSGVPDRFSGSGSGTDFSLKISRVEAEDLGVYFCSQSTLVPLTFGAGTKLELK

Experiments:
[1] = biological target: T1, Biotinylated Human C5aR Peptide (2nd loop), peptide 23 (human, N-terminal biotin); assay: SPR (BIACore 2000), biotinylated peptide 23 on SA chip, mAb as analyte
T1 construct: immobilised on a streptavidin sensor chip for BIACore; also called Biotinylated-Peptide 23; Biot-peptide
T1 peptide: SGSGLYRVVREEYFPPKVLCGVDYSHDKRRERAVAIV

[2] = biological target: T2, 12-mer peptide VREEYFPPKVLC of the human C5aR second extracellular loop (human); assay: peptide ELISA, biotinylated peptide on streptavidin-coated plates [b]
T2 construct: Parent peptide of the alanine scan; each mutant has one residue replaced by alanine
T2 peptide: Biotin-GSGSVREEYFPPKVLC
Experimental: Streptavidin-coated microtiter plates (NUNC) were coated with 10 μg/ml of peptide/well in a volume of 200 μl, and incubated at 4° C. overnight. Plates were washed three times with ELISA wash buffer (0.05% Tween 20 in PBS). MAbs were added at 2.5 μg/ml, and plates were incubated for 3 hrs at room temperature. HRP-conjugated rabbit anti-mouse IgG antibody diluted 1:1000 in ELISA wash buffer was used for detection. Plates were developed using TMB (3,3′,5,5′ tetramethyl benzidine, SIGMA) and read at […].

human C5aR [3] = biological target: T3, human C5aR (human, UniProt P21730 1-350); assay: competitive 125I-C5a ligand binding to hC5aR on human neutrophils; blocked ligand human C5a; 3 experiments; the table's column has no unit, nM is that of the axis Log Conc (nM)
T3 construct: On human neutrophils, on hC5aR-transfected L1.2 cells or on neutrophils of hC5aR knock-in mice; also called hC5aR; C5a receptor
T3 chain: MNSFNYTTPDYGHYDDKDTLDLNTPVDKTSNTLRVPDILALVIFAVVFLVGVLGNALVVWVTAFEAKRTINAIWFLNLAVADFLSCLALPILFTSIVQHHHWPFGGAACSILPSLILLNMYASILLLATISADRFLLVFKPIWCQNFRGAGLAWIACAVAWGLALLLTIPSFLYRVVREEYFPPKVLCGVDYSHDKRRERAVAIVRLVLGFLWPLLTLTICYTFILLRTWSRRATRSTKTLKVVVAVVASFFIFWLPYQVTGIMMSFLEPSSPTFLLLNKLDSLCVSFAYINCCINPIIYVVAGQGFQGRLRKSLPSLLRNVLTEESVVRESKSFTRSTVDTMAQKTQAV
Experimental: (§1) Human neutrophils were washed and re-suspended in binding buffer (50 mM HEPES, pH7.5, 1 mM CaCl2, 5 mM MgCl2, and 0.5% BSA) at 1×10⁷/ml. For each binding reaction (in a final volume of 120 μl), 40 μl cell suspension (4×10⁵ cells) with an appropriate amount of anti-hC5aR mAb, isotype matched control mAb or unlabelled human C5a (SIGMA) was incubated at room temperature for 15 min. ¹²⁵I-labelled human C5a (Perkin Elmer) was added at a final concentration of 0.4 nM and the reactions were incubated at room temperature for 60 min. Cells were then collected and washed 3 times with binding buffer containing 150 mM NaCl. Cells were then transferred to Opti plates (Perkin Elmer) with MicroScint 20 scintillation fluid and radioactivity counted on TopCount (Packard). Each sample was assayed in triplicate.
(§2) Further competitive ligand binding studies were conducted to measure ¹²⁵I-C5a displacement from hC5aR on hC5aR-transfected L1.2 cells with 7F3 or 3C5.

[4] = biological target: T1, Biotinylated Human C5aR Peptide (2nd …); assay: SPR (BIACore), biotinylated peptide 23 on SA chip; reference 7F3
[5] = biological target: T1, Biotinylated Human C5aR Peptide (2nd …); assay: SPR (BIACore), biotinylated peptide 23 on SA chip; experiment 1
human C5aR [6] = biological target: T3, human C5aR; assay: competition with 125I-C5a (0.4 nM) for binding to human neutrophils; human neutrophils
Experimental: as §1, §2

human C5aR [7] = biological target: T3, human C5aR; assay: displacement of 125I-C5a from hC5aR on hC5aR-transfected L1.2 cells; hC5aR-transfected L1.2 cells
[8] = biological target: T1, Biotinylated Human C5aR Peptide (2nd …); assay: SPR (BIACore), biotinylated peptide 23 on SA chip; experiment 2 (100 nM-0.78 nM, 20 min dissociation)
Experimental: (§3) Additional BIACore analyses were performed to compare binding affinities of antibodies 7F3 and 3C5 to peptide 23 under varying conditions. The conditions for these additional BIAcore experiments were as described above under “Experimental Details” with the following modifications: [0295] Experiment 2: Antibody concentrations included in kinetic analysis—100 nM-0.78 nM; 20 min dissociation. [0296] Experiment 3: Antibody concentrations included in kinetic analysis—7F3: 25 nM-0.78 nM,; 3C5: 6.25nM-0.78nM; 5 min dissociation. [0297] Experiment 4: Antibody concentrations included in kinetic analysis—7F3: 25 nM-1.56 nM,; 3C5: 6.25 nM-0.4 nM; 1 min association, 3 min dissociation.

[9] = biological target: T1, Biotinylated Human C5aR Peptide (2nd …); assay: SPR (BIACore), biotinylated peptide 23 on SA chip; experiment 3 (6.25 nM-0.78 nM, 5 min dissociation)
Experimental: as §3

[10] = biological target: T1, Biotinylated Human C5aR Peptide (2nd …); assay: SPR (BIACore), biotinylated peptide 23 on SA chip; experiment 4 (6.25 nM-0.4 nM, 1 min association, 3 min dissociation)
Experimental: as §3

human C5aR [11] = biological target: T3, human C5aR; assay: competition with 125I-C5a (0.4 nM) for binding to human neutrophils
human C5aR [12] = biological target: T3, human C5aR; assay: displacement of 125I-C5a from hC5aR on hC5aR-transfected L1.2 cells
[13] = biological target: T1, Biotinylated Human C5aR Peptide (2nd …); assay: SPR (BIACore), biotinylated peptide 23 on SA chip; experiment 3 (25 nM-0.78 nM, 5 min dissociation)
[14] = biological target: T1, Biotinylated Human C5aR Peptide (2nd …); assay: SPR (BIACore), biotinylated peptide 23 on SA chip; experiment 4 (25 nM-1.56 nM, 1 min association, 3 min dissociation)

| Binder | Ka [1] [M⁻¹] | Kd [1] [nM] | koff [1] [s⁻¹] | kon [1] [M⁻¹ s⁻¹] | binding result [2] | IC50 (human C5aR [3]) [nM] | Ka [5] [M⁻¹] | Kd [5] [nM] | koff [5] [s⁻¹] | kon [5] [M⁻¹ s⁻¹] | Ka [8] [M⁻¹] | Kd [8] [nM] | koff [8] [s⁻¹] | kon [8] [M⁻¹ s⁻¹] | other results |
| --- | --- | --- | --- | --- | --- | --- | --- | --- | --- | --- | --- | --- | --- | --- | --- |
| B1 | 6.3e+08 | 1.6 | 0.0059 | 3.7e+06 | binds | 0.214 | – | – | – | – | – | – | – | – | – |
| B2 | 5.97e+07 | 16.7 | 0.00995 | 595000 | binds | 0.275 | – | – | – | – | – | – | – | – | – |
| B3 | 2.1e+09 | 0.48 | 0.0016 | 3.3e+06 | – | – | 1.3e+09 | 0.76 | 0.00052 | 680000 | 2.2e+09 | 0.45 | 0.0007 | 1.5e+06 | fold improved affinity over 7F3 [4]: ~1.5 fold; IC50 (human C5aR [6]): 0.171 nM; EC50 (human C5aR [7]): 0.021 nM; Ka [9]: 9.6e+08 M⁻¹; Kd [9]: 1.04 nM; koff [9]: 0.00111 s⁻¹; kon [9]: 1.06e+06 M⁻¹ s⁻¹; Ka [10]: 7.16e+08 M⁻¹; Kd [10]: 1.4 nM; koff [10]: 0.00144 s⁻¹; kon [10]: 1.03e+06 M⁻¹ s⁻¹ |
| B4 | 1.4e+09 | 0.7 | 0.00045 | 640000 | – | – | 5.4e+08 | 1.8 | 0.00038 | 210000 | 8.1e+08 | 1.2 | 0.00035 | 290000 | IC50 (human C5aR [11]): 0.503 nM; EC50 (human C5aR [12]): 0.48 nM; Ka [13]: 7.19e+08 M⁻¹; Kd [13]: 1.39 nM; koff [13]: 0.000462 s⁻¹; kon [13]: 332000 M⁻¹ s⁻¹; Ka [14]: 4.79e+08 M⁻¹; Kd [14]: 2.09 nM; koff [14]: 0.000598 s⁻¹; kon [14]: 286000 M⁻¹ s⁻¹ |
